# B1: PPIP5K2 (Homo sapiens) (protein)
# chain: MSEAPRFFVGPEDTEINPGNYRHFFHHADEDDEEEDDSPPERQIVVGICSMAKKSKSKPMKEILERISLFKYITVVVFEEEVILNEPVENWPLCDCLISFHSKGFPLDKAVAYAKLRNPFVINDLNMQYLIQDRREVYSILQAEGILLPRYAILNRDPNNPKECNLIEGEDHVEVNGEVFQKPFVEKPVSAEDHNVYIYYPTSAGGGSQRLFRKIGSRSSVYSPESNVRKTGSYIYEEFMPTDGTDVKVYTVGPDYAHAEARKSPALDGKVERDSEGKEVRYPVILNAREKLIAWKVCLAFKQTVCGFDLLRANGQSYVCDVNGFSFVKNSMKYYDDCAKILGNIVMRELAPQFHIPWSIPLEAED
# Substrate: Nc1ncnc2c1ncn2[C@@H]1O[C@H](COP(=O)(O)OP(=O)(O)O)[C@@H](O)[C@H]1O
# Test: purified protein
# Assay type: biochemical, Homo sapiens
# Conditions: Mg2+
protein,measurement,value
B1,Km,5.2 ± 1.5 µM
same,kcat,0.002 s⁻¹
same,kcat/Km,370 M⁻¹ s⁻¹

# From article PMC3564036
